Measured values from patent US20180369425A1, “LINKED AND OTHER pH-TRIGGERED COMPOUNDS” (priority 2017, published 2018).
Residues, ends and D or L forms follow the SMILES beside them. *: point of attachment. X1 = CC1(C)C(/C=C/C=C/C=C/C=C2/N(CCCCCC(=O)NCCN3C(=O)CC(*)C3=O)c3ccc4ccccc4c3C2(C)C)=[N+](CCCCS(=O)(=O)[O-])c2ccc3ccccc3c21

What was measured:
[1] = test system: Human mammary epithelial cells (HMEpC); assay: Cytotoxicity of ICG-pHLIP; type: cell-based; conditions: 0.125 to 16 μM, 48 and 72 hours
Description: Human mammary epithelial cells (HMEpC) were acquired from Cell Applications Inc, and authenticated, and stored according to supplier's instructions. Cells were cultured in mammary epithelial cell growth medium provided by Cell Applications Inc. HMEpC cells were loaded in the wells of 96-well plates (˜6,000 cells per well) and incubated overnight. The increasing amounts of ICG-pHLIP dissolved in cell growth medium were added to cells to have the following final concentration of ICG-pHLIP with cells: 0.125, 0.25, 0.5, 1, 2, 4, 8 and 16 μM. After 48 and 72 hours of incubation, a colorimetric reagent (CellTiter 96 AQueous One Solution Assay, Promega) was added for 1 hour followed by measuring absorbance at 490 nm to assess cell viability. All samples were prepared in triplicate and each experiment was repeated several times.

[2] = test system: 4T1 tumor; assay: Ex vivo NIRF imaging of organs (biodistribution and kinetics of ICG-pHLIP); type: in vivo, mouse; conditions: for Fluorescence intensity, Bone / Fluorescence intensity, Brain / Fluorescence intensity, Heart / Fluorescence intensity, Kidneys / Fluorescence intensity, L. Intest. / Fluorescence intensity, Liver / Fluorescence intensity, Lungs / Fluorescence intensity, Muscle / Fluorescence intensity, Pancreas / Fluorescence intensity, S. Intest. / Fluorescence intensity, Skin / Fluorescence intensity, Spleen / Fluorescence intensity, Stomach / Fluorescence intensity, Tumor: mean ± St. D., 5 animals
Description: BALB/cAcNHsd mice ranging in age from 5 to 6 weeks obtained from Envigo RMS Inc were used in the study. Mouse mammary 4T1 cancer cells were subcutaneously implanted in the right flank (8×10^5 cells/0.1 mL/flank) of adult female mice. Triple negative 4T1 tumor model closely mimics stage IV of human breast cancer. When tumors reached 5-6 mm in diameter, single tail vein injections of 2.5 nmol (or 0.5 mg/kg) of ICG-pHLIP in sterile PBS with 5% DMSO or 5% Ethanol (volume of the injection was 100 μl) were performed. The whole body and ex vivo imaging was performed using a Stryker 1588 AIM clinical imaging system with L10 AIM Light Source, 1588 AIM Camera using a 10 mm or 5 mm scope.
Animals were euthanized at time points: 5 min, 1 hr, 2 hrs, 4 hrs, 6 hrs, 16 hrs, 26 hrs and 48 hrs. […] 100 μl of blood was collected immediately after euthanasia and mixed with 12.5 μl of citrate-dextrose anticoagulant solution (kept at 4° C.), and necropsy was performed. Tumor, muscles, skin, heart, lungs, liver, spleen, kidneys, brain, pancreas, bone, stomach, small and large intestines were collected, imaged immediately after collection, weighed, and fast frozen in liquid nitrogen.
The ex vivo imaging of organs was performed using a Stryker 1588 AIM clinical imaging system with L10 AIM Light Source, 1588 AIM Camera using a 10 mm scope. The lens was spaced 4.3 cm away from the surface of the organs within an enclosed (light protected) area. The NIRF imaging of each organ was performed at three different laser intensities set on a hexadecimal scale as 0B-22 (low), 12-5C (medium), and 20-3A (high). The digital images of organs were processed using program written in Python to determine the average level of intensity recorded in the green channel. Since organs were imaged in the dark on black mats, the background signal was determined by introducing an intensity threshold. All the pixels with intensity from the green channel above the set threshold were counted and the average green intensity per pixel was calculated. Thus, the mean intensity per organ (Table 17a) and averaged over organs from 5 animals (Table 17b) was calculated.

Which results are given for `CC(C)C[C@H](NC(=O)[C@H](Cc1ccc(O)cc1)NC(=O)[C@H](C)NC(=O)[C@H](CCCNC(=N)N)NC(=O)[C@H](Cc1c[nH]c2ccccc12)NC(=O)[C@@H]1CCCN1C(=O)[C@H](CC(N)=O)NC(=O)[C@H](CCC(N)=O)NC(=O)[C@H](CC(=O)O)NC(=O)[C@H](CC(=O)O)NC(=O)[C@H](CSC1CC(=O)N(CCNC(=O)CCCCCN2/C(=C/C=C/C=C/C=C/C3=[N+](CCCCS(=O)(=O)[O-])c4ccc5ccccc5c4C3(C)C)C(C)(C)c3c2ccc2ccccc32)C1=O)NC(=O)[C@H](C)N)C(=O)N[C@@H](CC(=O)O)C(=O)N[C@@H](CC(C)C)C(=O)N[C@@H](CC(C)C)C(=O)N[C@@H](Cc1ccccc1)C(=O)N1CCC[C@H]1C(=O)N[C@H](C(=O)N[C@@H](CC(=O)O)C(=O)N[C@H](C(=O)N[C@@H](CC(C)C)C(=O)N[C@@H](CC(C)C)C(=O)N[C@@H](CC(C)C)C(=O)N[C@@H](CC(=O)O)C(=O)N[C@@H](CC(C)C)C(=O)N[C@@H](CC(C)C)C(=O)N[C@@H](Cc1c[nH]c2ccccc12)C(=O)N[C@@H](C)C(=O)O)[C@@H](C)O)[C@@H](C)O` (some centres unmarked) [ICG-pHLIP] (H-AC(X1)DDQNPWRAYLDLLFPTDTLLLDLLWA-OH)?
cytotoxic effect [1]: did not show any cytotoxic effect; time the fluorescence stays within the tumor ([2]; 4T1 tumor): up to 26 hours; Fluorescence intensity, Bone ([2]; 5 min p.i.): 79.4 ± 8.1 a.u.; Fluorescence intensity, Brain ([2]; 5 min p.i.): 167.0 ± 22.5 a.u.; Fluorescence intensity, Heart ([2]; 5 min p.i.): 198.1 ± 15.9 a.u.; Fluorescence intensity, Kidneys ([2]; 5 min p.i.): 171.7 ± 18.4 a.u.; Fluorescence intensity, L. Intest. ([2]; 5 min p.i.): 37.1 ± 7.9 a.u.; Fluorescence intensity, Liver ([2]; 5 min p.i.): 419.8 ± 37.9 a.u.; Fluorescence intensity, Lungs ([2]; 5 min p.i.): 216.6 ± 2.7 a.u.; Fluorescence intensity, Muscle ([2]; 5 min p.i.): 22.2 ± 20.3 a.u.; Fluorescence intensity, Pancreas ([2]; 5 min p.i.): 153.2 ± 34.7 a.u.; Fluorescence intensity, S. Intest. ([2]; 5 min p.i.): 42.4 ± 12.2 a.u.; Fluorescence intensity, Skin ([2]; 5 min p.i.): 27.9 ± 16.4 a.u.; Fluorescence intensity, Spleen ([2]; 5 min p.i.): 154.6 ± 9.0 a.u.; Fluorescence intensity, Stomach ([2]; 5 min p.i.): 91.7 ± 13.4 a.u.; Fluorescence intensity, Tumor ([2]; 5 min p.i.): 36.2 ± 6.0 a.u.; Fluorescence intensity, Bone ([2]; 1 hour p.i.): 74.0 ± 13.1 a.u.; Fluorescence intensity, Brain ([2]; 1 hour p.i.): 137.7 ± 8.9 a.u.; Fluorescence intensity, Heart ([2]; 1 hour p.i.): 179.6 ± 16.4 a.u.; Fluorescence intensity, Kidneys ([2]; 1 hour p.i.): 193.7 ± 10.6 a.u.; Fluorescence intensity, L. Intest. ([2]; 1 hour p.i.): 28.4 ± 17.9 a.u.; Fluorescence intensity, Liver ([2]; 1 hour p.i.): 533.0 ± 16.7 a.u.; Fluorescence intensity, Lungs ([2]; 1 hour p.i.): 194.7 ± 6.2 a.u.; Fluorescence intensity, Muscle ([2]; 1 hour p.i.): 8.2 ± 18.2 a.u.; Fluorescence intensity, Pancreas ([2]; 1 hour p.i.): 132.7 ± 24.5 a.u.; Fluorescence intensity, S. Intest. ([2]; 1 hour p.i.): 71.9 ± 16.9 a.u.; Fluorescence intensity, Skin ([2]; 1 hour p.i.): 39.1 ± 9.0 a.u.; Fluorescence intensity, Spleen ([2]; 1 hour p.i.): 157.8 ± 4.4 a.u.; Fluorescence intensity, Stomach ([2]; 1 hour p.i.): 99.1 ± 23.0 a.u.; Fluorescence intensity, Tumor ([2]; 1 hour p.i.): 100.5 ± 38.5 a.u.; Fluorescence intensity, Bone ([2]; 2 hours p.i.): 57.5 ± 23.4 a.u.; Fluorescence intensity, Brain ([2]; 2 hours p.i.): 82.2 ± 17.4 a.u.; Fluorescence intensity, Heart ([2]; 2 hours p.i.): 167.6 ± 12.2 a.u.; Fluorescence intensity, Kidneys ([2]; 2 hours p.i.): 156.0 ± 14.1 a.u.; Fluorescence intensity, L. Intest. ([2]; 2 hours p.i.): 6.4 ± 14.4 a.u.; Fluorescence intensity, Liver ([2]; 2 hours p.i.): 542.6 ± 26.8 a.u.; Fluorescence intensity, Lungs ([2]; 2 hours p.i.): 177.0 ± 10.4 a.u.; Fluorescence intensity, Muscle ([2]; 2 hours p.i.): 0.0 ± 0.0 a.u.; Fluorescence intensity, Pancreas ([2]; 2 hours p.i.): 89.0 ± 32.0 a.u.; Fluorescence intensity, S. Intest. ([2]; 2 hours p.i.): 47.1 ± 13.9 a.u.; Fluorescence intensity, Skin ([2]; 2 hours p.i.): 32.0 ± 18.1 a.u.; Fluorescence intensity, Spleen ([2]; 2 hours p.i.): 136.9 ± 7.7 a.u.; Fluorescence intensity, Stomach ([2]; 2 hours p.i.): 80.7 ± 18.6 a.u.; Fluorescence intensity, Tumor ([2]; 2 hours p.i.): 133.9 ± 14.2 a.u.; Fluorescence intensity, Bone ([2]; 4 hours p.i.): 63.1 ± 21.0 a.u.; Fluorescence intensity, Brain ([2]; 4 hours p.i.): 73.8 ± 8.3 a.u.; Fluorescence intensity, Heart ([2]; 4 hours p.i.): 185.6 ± 7.2 a.u.; Fluorescence intensity, Kidneys ([2]; 4 hours p.i.): 185.5 ± 6.2 a.u.; Fluorescence intensity, L. Intest. ([2]; 4 hours p.i.): 7.9 ± 17.6 a.u.; Fluorescence intensity, Liver ([2]; 4 hours p.i.): 540.1 ± 18.8 a.u.; Fluorescence intensity, Lungs ([2]; 4 hours p.i.): 187.0 ± 17.2 a.u.; Fluorescence intensity, Muscle ([2]; 4 hours p.i.): 26.2 ± 24.6 a.u.; Fluorescence intensity, Pancreas ([2]; 4 hours p.i.): 92.0 ± 2.5 a.u.; Fluorescence intensity, S. Intest. ([2]; 4 hours p.i.): 64.9 ± 16.3 a.u.; Fluorescence intensity, Skin ([2]; 4 hours p.i.): 48.2 ± 11.6 a.u.; Fluorescence intensity, Spleen ([2]; 4 hours p.i.): 150.9 ± 11.4 a.u.; Fluorescence intensity, Stomach ([2]; 4 hours p.i.): 108.4 ± 6.5 a.u.; Fluorescence intensity, Tumor ([2]; 4 hours p.i.): 211.2 ± 15.7 a.u.; Fluorescence intensity, Bone ([2]; 6 hours p.i.): 66.7 ± 16.0 a.u.; Fluorescence intensity, Brain ([2]; 6 hours p.i.): 55.3 ± 11.0 a.u.; Fluorescence intensity, Heart ([2]; 6 hours p.i.): 163.0 ± 8.2 a.u.; Fluorescence intensity, Kidneys ([2]; 6 hours p.i.): 174.0 ± 5.0 a.u.; Fluorescence intensity, L. Intest. ([2]; 6 hours p.i.): 27.1 ± 15.6 a.u.; Fluorescence intensity, Liver ([2]; 6 hours p.i.): 527.1 ± 44.4 a.u.; Fluorescence intensity, Lungs ([2]; 6 hours p.i.): 156.8 ± 15.9 a.u.; Fluorescence intensity, Muscle ([2]; 6 hours p.i.): 0.0 ± 0.0 a.u.; Fluorescence intensity, Pancreas ([2]; 6 hours p.i.): 82.2 ± 15.3 a.u.; Fluorescence intensity, S. Intest. ([2]; 6 hours p.i.): 54.2 ± 11.6 a.u.; Fluorescence intensity, Skin ([2]; 6 hours p.i.): 47.1 ± 13.6 a.u.; Fluorescence intensity, Spleen ([2]; 6 hours p.i.): 148.1 ± 13.4 a.u.; Fluorescence intensity, Stomach ([2]; 6 hours p.i.): 126.8 ± 9.9 a.u.; Fluorescence intensity, Tumor ([2]; 6 hours p.i.): 198.6 ± 33.0 a.u.; Fluorescence intensity, Bone ([2]; 16 hours p.i.): 66.2 ± 8.5 a.u.; Fluorescence intensity, Brain ([2]; 16 hours p.i.): 35.3 ± 1.8 a.u.; Fluorescence intensity, Heart ([2]; 16 hours p.i.): 129.2 ± 15.7 a.u.; Fluorescence intensity, Kidneys ([2]; 16 hours p.i.): 170.6 ± 12.8 a.u.; Fluorescence intensity, L. Intest. ([2]; 16 hours p.i.): 40.5 ± 4.0 a.u.; Fluorescence intensity, Liver ([2]; 16 hours p.i.): 400.5 ± 34.1 a.u.; Fluorescence intensity, Lungs ([2]; 16 hours p.i.): 141.3 ± 21.5 a.u.; Fluorescence intensity, Muscle ([2]; 16 hours p.i.): 0.0 ± 0.0 a.u.; Fluorescence intensity, Pancreas ([2]; 16 hours p.i.): 70.3 ± 30.0 a.u.; Fluorescence intensity, S. Intest. ([2]; 16 hours p.i.): 83.8 ± 13.6 a.u.; Fluorescence intensity, Skin ([2]; 16 hours p.i.): 76.7 ± 20.4 a.u.; Fluorescence intensity, Spleen ([2]; 16 hours p.i.): 116.3 ± 25.0 a.u.; Fluorescence intensity, Stomach ([2]; 16 hours p.i.): 117.3 ± 33.1 a.u.; Fluorescence intensity, Tumor ([2]; 16 hours p.i.): 222.8 ± 11.0 a.u.; Fluorescence intensity, Bone ([2]; 26 hours p.i.): 42.8 ± 6.4 a.u.; Fluorescence intensity, Brain ([2]; 26 hours p.i.): 0.0 ± 0.0 a.u.; Fluorescence intensity, Heart ([2]; 26 hours p.i.): 61.3 ± 6.6 a.u.; Fluorescence intensity, Kidneys ([2]; 26 hours p.i.): 111.8 ± 7.9 a.u.; Fluorescence intensity, L. Intest. ([2]; 26 hours p.i.): 0.0 ± 0.0 a.u.; Fluorescence intensity, Liver ([2]; 26 hours p.i.): 213.1 ± 9.7 a.u.; Fluorescence intensity, Lungs ([2]; 26 hours p.i.): 64.2 ± 13.9 a.u.; Fluorescence intensity, Muscle ([2]; 26 hours p.i.): 8.6 ± 19.2 a.u.; Fluorescence intensity, Pancreas ([2]; 26 hours p.i.): 30.9 ± 17.9 a.u.; Fluorescence intensity, S. Intest. ([2]; 26 hours p.i.): 37.8 ± 4.7 a.u.; Fluorescence intensity, Skin ([2]; 26 hours p.i.): 25.1 ± 24.8 a.u.; Fluorescence intensity, Spleen ([2]; 26 hours p.i.): 48.0 ± 7.7 a.u.; Fluorescence intensity, Stomach ([2]; 26 hours p.i.): 59.1 ± 13.4 a.u.; Fluorescence intensity, Tumor ([2]; 26 hours p.i.): 182.6 ± 14.7 a.u.; time of maximum signal in liver ([2]; p.i.): 1 h
